From paper PMC11575137 (BMC Biology, 2024) come the findings set out here.

This experiment concerns the target KRAS^G12D mutant. The experiment in a line: BLI binding kinetics assay, KRAS G12D mutant. Conditions: protein-protein; BLI (Fig. S5). For orientation: Biolayer interferometry detects binding as a change in optical thickness at a sensor tip.

B1: GRB10: potential KRAS-interacting protein, UniProt Q13322 (protein, UniProt Q13322 1-594, looked up)
Growth factor receptor-bound …: MALAGCPDSFLHHPYYQDKVEQTPRSQQDPAGPGLPAQSDRLANHQEDDVDLEALVNDMNASLESLYSACSMQSDTVPLLQNGQHARSQPRASGPPRSIQPQVSPRQRVQRSQPVHILAVRRLQEEDQQFRTSSLPAIPNPFPELCGPGSPPVLTPGSLPPSQAAAKQDVKVFSEDGTSKVVEILADMTARDLCQLLVYKSHCVDDNSWTLVEHHPHLGLERCLEDHELVVQVESTMASESKFLFRKNYAKYEFFKNPMNFFPEQMVTWCQQSNGSQTQLLQNFLNSSSCPEIQGFLHVKELGKKSWKKLYVCLRRSGLYCSTKGTSKEPRHLQLLADLEDSNIFSLIAGRKQYNAPTDHGLCIKPNKVRNETKELRLLCAEDEQTRTCWMTAFRLLKYGMLLYQNYRIPQQRKALLSPFSTPVRSVSENSLVAMDFSGQTGRVIENPAEAQSAALEEGHAWRKRSTRMNILGSQSPLHPSTLSTVIHRTQHWFHGRISREESHRIIKQQGLVDGLFLLRDSQSNPKAFVLTLCHHQKIKNFQILPCEDDGQTFFSLDDGNTKFSDLIQLVDFYQLNKGVLPCKLKHHCIRVAL
As a reminder, the Kd is the concentration at which binding is half-saturated. Low readings indicate tighter binding, high ones weaker binding. In the case of B1, the Kd worked out at 51 µM.
